The supplement of paper PMC10065799, “High-throughput profiling of sequence recognition by tyrosine kinases and SH2 domains using bacterial peptide display” (eLife, 2023)

target: FGFR3 (UniProt P22607); assay: phosphorylation enrichment, bacterial display (enrichment ratio); higher = better substrate or ligand; peptides without Tyr show the background
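Further: 11-residue human phosphosite peptides and single-mutation variants displayed on the E. coli surface, counted by deep sequencing, each peptide's frequency after selection divided by its frequency in the unselected input library; frequency after pTyr selection over input frequency; kinase dosed for 20-30% of maximal phosphorylation in three min.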

Sequence of FGFR3 (P22607 whole entry, looked up): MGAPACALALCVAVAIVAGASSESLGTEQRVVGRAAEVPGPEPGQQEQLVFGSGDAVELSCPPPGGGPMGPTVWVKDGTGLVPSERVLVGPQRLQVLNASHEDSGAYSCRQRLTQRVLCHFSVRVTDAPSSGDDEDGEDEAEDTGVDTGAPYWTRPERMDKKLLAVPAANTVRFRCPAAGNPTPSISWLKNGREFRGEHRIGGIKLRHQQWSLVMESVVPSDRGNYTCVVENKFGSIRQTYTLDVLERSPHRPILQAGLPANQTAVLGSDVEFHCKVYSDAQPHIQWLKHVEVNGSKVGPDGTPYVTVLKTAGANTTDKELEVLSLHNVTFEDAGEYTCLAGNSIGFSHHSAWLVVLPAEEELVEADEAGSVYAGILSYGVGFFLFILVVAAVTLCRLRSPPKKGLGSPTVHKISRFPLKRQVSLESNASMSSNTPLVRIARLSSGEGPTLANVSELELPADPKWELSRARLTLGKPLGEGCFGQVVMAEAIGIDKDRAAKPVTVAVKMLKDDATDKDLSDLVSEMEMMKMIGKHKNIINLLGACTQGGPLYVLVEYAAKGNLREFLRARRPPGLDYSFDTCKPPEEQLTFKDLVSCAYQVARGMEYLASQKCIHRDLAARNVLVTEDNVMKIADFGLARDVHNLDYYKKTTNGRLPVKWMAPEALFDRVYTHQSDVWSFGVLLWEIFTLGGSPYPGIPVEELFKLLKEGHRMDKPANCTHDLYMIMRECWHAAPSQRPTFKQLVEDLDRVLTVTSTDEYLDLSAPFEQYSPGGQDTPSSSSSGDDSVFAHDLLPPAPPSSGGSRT

Point of comparison: DTQNSYGCATS [TSC1_Y304], phosphorylation enrichment 0.707. Against it:
- GITTGYLVLKE [DNMT3B_Y588_A585T] — lower, 0.572
- RIVEIYSRRLQ [GCH1_Y175] — higher, 0.96
- VASMFYTLVIP [OR8K3_Y277_I275M] — higher, 2.37
- RNNTEYVRDIG [MUSK_Y577_I575T] — lower, 0.427
- EEHIPCTHMNG [INSR_Y1361_Y1361C] — lower, 0.632
- QMRLKYSQSDL [SMC1A_Y714] — lower, 0.453
- PDMHSYVVRFN [GRIN2D_Y732_M733V_YF] — higher, 0.797
- FPIDHYLGKEM [G6PD_Y202_R198P_YF] — lower, 0.619
- KGLMPYGQPRP [SRRT_Y798_Q793K] — lower, 0.366
- LEAFQYIGESQ [MSH2_Y856_E853A] — higher, 0.938
- FSDQVYRQHRK [TH_Y230_R233H] — lower, 0.441
- ADRNHYRRYPR [YBX1_Y145] — lower, 0.465
- EVRTQYEEIAQ [KRT76_Y361_A359T] — higher, 0.726
- FLEKFYKFGSR [NNMT_Y25_YF] — lower, 0.548
- FEPDAYFDLDQ [ELP5_Y302_D303Y_YF] — higher, 4.43
- VVGMLYVGGLP [LAMA2_Y2886] — lower, 0.683
- SVETPYVSVTF [NDRG2_Y47_G48V] — higher, 0.936
- LLVVLYKYRCF [PSEN1_Y154_Y159F] — higher, 1.12
- AESPEYVHMFT [FAM111A_Y511_YF] — higher, 1.58
- IKELTYQTEED [MYH7_Y1852] — higher, 0.773
- SHLSAFPALEG [CD5_Y465_Y465F] — lower, 0.52
- MPLTEYLKRIK [CNGB3_Y200] — lower, 0.462
- SEEVTYATLTF [CLEC12B_Y7] — higher, 1.57
- SSAAGYACLAF [MVD_Y131_YF] — higher, 0.763
- LSNPAYRLLLA [DDR1_Y513] — higher, 1.19
- TLLERYGMTEI [ACSF3_Y355] — lower, 0.564
- CTTIHCNFMCN [TP53_Y234_Y234C_YF] — lower, 0.574
- NCFKYYMSDDI [ATRX_Y204] — higher, 0.931
- SECCKYKIDNL [OSMR_Y689_P694L] — lower, 0.685
- PVGVLYEVKVF [PTS_Y128_K129E_YF] — higher, 1.41
- KLKEKYQKDIA [HMGB1_Y155_E156Q] — higher, 1.21
- AKVKPYINGTS [IBTK_Y1064_V1065I] — lower, 0.408

tested on: Fer (mouse); assay: as above

Point of comparison: LEAFQYIGESQ [MSH2_Y856_E853A], phosphorylation enrichment 0.505. Against it:
- GITTGYLVLKE [DNMT3B_Y588_A585T] — higher, 0.542
- RIVEIYSRRLQ [GCH1_Y175] — higher, 0.556
- VASMFYTLVIP [OR8K3_Y277_I275M] — higher, 3.5
- RNNTEYVRDIG [MUSK_Y577_I575T] — lower, 0.302
- EEHIPCTHMNG [INSR_Y1361_Y1361C] — higher, 0.612
- QMRLKYSQSDL [SMC1A_Y714] — lower, 0.365
- PDMHSYVVRFN [GRIN2D_Y732_M733V_YF] — lower, 0.411
- FPIDHYLGKEM [G6PD_Y202_R198P_YF] — lower, 0.469
- KGLMPYGQPRP [SRRT_Y798_Q793K] — lower, 0.363
- FSDQVYRQHRK [TH_Y230_R233H] — lower, 0.355
- ADRNHYRRYPR [YBX1_Y145] — lower, 0.46
- EVRTQYEEIAQ [KRT76_Y361_A359T] — higher, 0.588
- FLEKFYKFGSR [NNMT_Y25_YF] — lower, 0.389
- FEPDAYFDLDQ [ELP5_Y302_D303Y_YF] — higher, 0.648
- VVGMLYVGGLP [LAMA2_Y2886] — lower, 0.486
- SVETPYVSVTF [NDRG2_Y47_G48V] — higher, 1.56
- LLVVLYKYRCF [PSEN1_Y154_Y159F] — higher, 0.911
- DTQNSYGCATS [TSC1_Y304] — lower, 0.483
- AESPEYVHMFT [FAM111A_Y511_YF] — higher, 0.542
- IKELTYQTEED [MYH7_Y1852] — higher, 0.635
- SHLSAFPALEG [CD5_Y465_Y465F] — lower, 0.312
- MPLTEYLKRIK [CNGB3_Y200] — lower, 0.345
- SEEVTYATLTF [CLEC12B_Y7] — higher, 2.19
- SSAAGYACLAF [MVD_Y131_YF] — lower, 0.493
- LSNPAYRLLLA [DDR1_Y513] — higher, 0.981
- TLLERYGMTEI [ACSF3_Y355] — lower, 0.42
- CTTIHCNFMCN [TP53_Y234_Y234C_YF] — lower, 0.454
- NCFKYYMSDDI [ATRX_Y204] — lower, 0.496
- SECCKYKIDNL [OSMR_Y689_P694L] — lower, 0.473
- PVGVLYEVKVF [PTS_Y128_K129E_YF] — higher, 2.05
- KLKEKYQKDIA [HMGB1_Y155_E156Q] — higher, 0.522
- AKVKPYINGTS [IBTK_Y1064_V1065I] — lower, 0.274

target: Fes (UniProt P07332); assay: as above
Sequence (P07332 whole entry, looked up): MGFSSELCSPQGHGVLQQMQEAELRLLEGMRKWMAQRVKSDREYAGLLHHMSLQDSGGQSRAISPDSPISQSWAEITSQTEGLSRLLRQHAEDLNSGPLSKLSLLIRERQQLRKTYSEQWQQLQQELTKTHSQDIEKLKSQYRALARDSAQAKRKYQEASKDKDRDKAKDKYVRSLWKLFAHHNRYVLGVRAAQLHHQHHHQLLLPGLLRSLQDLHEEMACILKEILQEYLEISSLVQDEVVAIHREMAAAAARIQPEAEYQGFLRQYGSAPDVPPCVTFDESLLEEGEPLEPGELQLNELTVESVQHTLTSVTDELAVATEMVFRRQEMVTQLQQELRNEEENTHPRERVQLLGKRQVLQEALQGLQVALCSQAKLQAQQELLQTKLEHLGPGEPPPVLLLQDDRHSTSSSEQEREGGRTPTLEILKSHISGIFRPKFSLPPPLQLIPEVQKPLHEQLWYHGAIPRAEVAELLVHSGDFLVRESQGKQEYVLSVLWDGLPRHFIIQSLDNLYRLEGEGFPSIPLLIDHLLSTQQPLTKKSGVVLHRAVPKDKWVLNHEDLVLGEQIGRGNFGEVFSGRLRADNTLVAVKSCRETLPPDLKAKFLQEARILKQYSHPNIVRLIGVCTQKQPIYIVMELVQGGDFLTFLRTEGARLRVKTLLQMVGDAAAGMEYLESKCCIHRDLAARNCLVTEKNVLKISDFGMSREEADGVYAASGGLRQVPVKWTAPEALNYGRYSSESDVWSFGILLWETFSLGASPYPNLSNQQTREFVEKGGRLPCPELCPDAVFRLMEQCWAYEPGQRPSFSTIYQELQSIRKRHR

Point of comparison: NCFKYYMSDDI [ATRX_Y204], phosphorylation enrichment 1.51. Against it:
- GITTGYLVLKE [DNMT3B_Y588_A585T] — lower, 0.797
- RIVEIYSRRLQ [GCH1_Y175] — lower, 0.976
- VASMFYTLVIP [OR8K3_Y277_I275M] — lower, 1.14
- RNNTEYVRDIG [MUSK_Y577_I575T] — lower, 0.582
- EEHIPCTHMNG [INSR_Y1361_Y1361C] — lower, 0.867
- QMRLKYSQSDL [SMC1A_Y714] — lower, 0.863
- PDMHSYVVRFN [GRIN2D_Y732_M733V_YF] — lower, 1.04
- FPIDHYLGKEM [G6PD_Y202_R198P_YF] — lower, 0.903
- KGLMPYGQPRP [SRRT_Y798_Q793K] — lower, 0.727
- LEAFQYIGESQ [MSH2_Y856_E853A] — higher, 1.58
- FSDQVYRQHRK [TH_Y230_R233H] — lower, 0.644
- ADRNHYRRYPR [YBX1_Y145] — lower, 0.644
- EVRTQYEEIAQ [KRT76_Y361_A359T] — lower, 1.04
- FLEKFYKFGSR [NNMT_Y25_YF] — lower, 0.746
- FEPDAYFDLDQ [ELP5_Y302_D303Y_YF] — lower, 1.34
- VVGMLYVGGLP [LAMA2_Y2886] — lower, 1.2
- SVETPYVSVTF [NDRG2_Y47_G48V] — lower, 1.19
- LLVVLYKYRCF [PSEN1_Y154_Y159F] — higher, 2.42
- DTQNSYGCATS [TSC1_Y304] — lower, 0.834
- AESPEYVHMFT [FAM111A_Y511_YF] — lower, 1.12
- IKELTYQTEED [MYH7_Y1852] — lower, 1.33
- SHLSAFPALEG [CD5_Y465_Y465F] — lower, 0.612
- MPLTEYLKRIK [CNGB3_Y200] — lower, 0.616
- SEEVTYATLTF [CLEC12B_Y7] — higher, 1.53
- SSAAGYACLAF [MVD_Y131_YF] — lower, 1.07
- LSNPAYRLLLA [DDR1_Y513] — lower, 1.15
- TLLERYGMTEI [ACSF3_Y355] — lower, 0.863
- CTTIHCNFMCN [TP53_Y234_Y234C_YF] — lower, 0.869
- SECCKYKIDNL [OSMR_Y689_P694L] — lower, 0.939
- PVGVLYEVKVF [PTS_Y128_K129E_YF] — higher, 2.67
- KLKEKYQKDIA [HMGB1_Y155_E156Q] — lower, 0.996
- AKVKPYINGTS [IBTK_Y1064_V1065I] — lower, 0.503

target: Fyn (UniProt P06241); assay: as above
Sequence (P06241 whole entry, looked up): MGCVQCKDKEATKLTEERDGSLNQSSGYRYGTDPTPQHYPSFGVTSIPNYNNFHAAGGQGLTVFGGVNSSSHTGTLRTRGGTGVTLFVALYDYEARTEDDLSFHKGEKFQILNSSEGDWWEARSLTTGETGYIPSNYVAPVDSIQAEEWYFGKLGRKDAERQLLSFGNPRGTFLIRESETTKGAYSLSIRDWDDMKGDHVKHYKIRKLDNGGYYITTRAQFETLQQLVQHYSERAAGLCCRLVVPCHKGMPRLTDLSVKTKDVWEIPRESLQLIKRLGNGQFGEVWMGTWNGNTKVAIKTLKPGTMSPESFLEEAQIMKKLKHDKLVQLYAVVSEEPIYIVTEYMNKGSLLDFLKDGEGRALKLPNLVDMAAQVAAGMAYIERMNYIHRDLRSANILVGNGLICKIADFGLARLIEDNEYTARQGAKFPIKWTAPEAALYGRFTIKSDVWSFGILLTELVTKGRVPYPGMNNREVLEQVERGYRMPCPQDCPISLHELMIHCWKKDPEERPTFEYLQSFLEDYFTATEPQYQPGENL

Point of comparison: NCFKYYMSDDI [ATRX_Y204], phosphorylation enrichment 0.491. Against it:
- GITTGYLVLKE [DNMT3B_Y588_A585T] — lower, 0.404
- RIVEIYSRRLQ [GCH1_Y175] — higher, 0.921
- VASMFYTLVIP [OR8K3_Y277_I275M] — higher, 0.661
- RNNTEYVRDIG [MUSK_Y577_I575T] — higher, 0.496
- EEHIPCTHMNG [INSR_Y1361_Y1361C] — lower, 0.436
- QMRLKYSQSDL [SMC1A_Y714] — lower, 0.251
- PDMHSYVVRFN [GRIN2D_Y732_M733V_YF] — lower, 0.467
- FPIDHYLGKEM [G6PD_Y202_R198P_YF] — lower, 0.396
- KGLMPYGQPRP [SRRT_Y798_Q793K] — lower, 0.36
- LEAFQYIGESQ [MSH2_Y856_E853A] — higher, 0.625
- FSDQVYRQHRK [TH_Y230_R233H] — lower, 0.378
- ADRNHYRRYPR [YBX1_Y145] — higher, 0.544
- EVRTQYEEIAQ [KRT76_Y361_A359T] — lower, 0.455
- FLEKFYKFGSR [NNMT_Y25_YF] — lower, 0.413
- FEPDAYFDLDQ [ELP5_Y302_D303Y_YF] — higher, 0.598
- VVGMLYVGGLP [LAMA2_Y2886] — lower, 0.455
- SVETPYVSVTF [NDRG2_Y47_G48V] — higher, 0.784
- LLVVLYKYRCF [PSEN1_Y154_Y159F] — higher, 0.762
- DTQNSYGCATS [TSC1_Y304] — lower, 0.433
- AESPEYVHMFT [FAM111A_Y511_YF] — higher, 0.502
- IKELTYQTEED [MYH7_Y1852] — higher, 0.579
- SHLSAFPALEG [CD5_Y465_Y465F] — lower, 0.352
- MPLTEYLKRIK [CNGB3_Y200] — lower, 0.34
- SEEVTYATLTF [CLEC12B_Y7] — higher, 6.58
- SSAAGYACLAF [MVD_Y131_YF] — lower, 0.428
- LSNPAYRLLLA [DDR1_Y513] — higher, 0.954
- TLLERYGMTEI [ACSF3_Y355] — lower, 0.387
- CTTIHCNFMCN [TP53_Y234_Y234C_YF] — lower, 0.419
- SECCKYKIDNL [OSMR_Y689_P694L] — lower, 0.446
- PVGVLYEVKVF [PTS_Y128_K129E_YF] — higher, 0.849
- KLKEKYQKDIA [HMGB1_Y155_E156Q] — lower, 0.465
- AKVKPYINGTS [IBTK_Y1064_V1065I] — lower, 0.343
